{"source": "patent US12677828B2", "about": "“Lipid encasing amphipathic peptides” (Kansas State University Research Foundation, priority 2019, dated 2026)", "key": {"M. sexta larvae": {"tested_on": "M. sexta larvae", "test": "Persistence assay, 3-day and 5-day waiting period before adding larvae", "type": "in vivo, Manduca sexta", "conditions": "Novarulon 0.02%; both waiting periods (3-day, 5-day) before adding first instar larvae", "experimental": "Subsequently, a persistence assay was conducted to see if the LEAP colloidal particles could protect the active ingredient from environmental degradation. Two studies were conducted, one with a 3-day (FIG. 8) and the other with a 5-day (FIG. 9) waiting period before adding the first instar larvae. The methods used to prepare the LEAP colloidal particle encased materials and the preparation of the coated leaves were identical as described above, except that the leaf discs were allowed to sit in the incubator under the previously described conditions outlined above for the designated time period. After the designated waiting period, 1-day old (first instar) M. sexta larvae were place on the treated leaves. Each day the number of dead larvae were counted. Examining FIGS. 8 and 9, it is clear to see that the LEAP colloidal particles containing the active ingredient Novarulon started killing faster than the Novarulon control. […] Since the Novarulon by itself was still active it appears that coating the Novarulon containing oil droplet with the peptide appears to have been ingested more efficiently such that the lethal dose was achieved more rapidly."}, "Aspergillus nidulans": {"tested_on": "Aspergillus nidulans", "test": "Antifungal activity on spore seeded plates (1% skim milk agar), Example 3", "type": "cell-based", "conditions": "0.5% Captan in 1:1 propionic acid/soy oil, applied as mixture alone (label Captan) or encased in the named peptide; 5 to 40 μL spotted", "experimental": "A 0.5% solution of Captan was prepared in a 1:1 mixture of propionic acid and soy oil (final volume of 10 μL for each peptide). The solution was added to 1 mg of dried peptide. After incubating for 15 min, water (490 μL, pH=3) was added dropwise, then sonicated in a bath sonicator for 5 min at 37° C. and allowed to stand for 20 min. The sample was then centrifuged at room temperature for 10 min at 14K×g. At this point each peptide-lipid complex formed a whitish film on the surface of the water. The volume of water was reduced using a Pipetman leaving a final volume of 150 μL. The solution was again vortexed to resuspend the colloids. An illustration of the colloidal particle with the active ingredient distributed throughout the colloidal body is shown in FIG. 3. A number of different controls were tested along with the peptides prepared with all of the components: soy oil only, soy oil+propionic acid, soy oil+propionic acid+Captan. Volumes of from 5 to 40 μL were spotted on spore seeded plates of Aspergillus nidulans grown on 1% skim milk agar gel) yielding 0.33 and 1.33 μg of active agent delivered, respectively (FIG. 4).\nIn FIG. 4, lawns of A. were seeded just before testing. The actively growing fungus appears greenish yellow in color. For controls (FIG. 5A) soy oil and soy oil+propionic acid (1:1, v/v) were applied directly to the plates at the indicated volumes. […] When the 1:1 soy plus propionic acid was separately encased using the two peptides (FIG. 5B, columns 1 and 2) there was minimal antifungal activity. In FIG. 5C, column 1, Captan was dissolved in the propionic acid prior to mixing with the soy oil."}, "[1]": {"conditions": "cited from earlier work"}, "A. nidulans": {"tested_on": "A. nidulans", "test": "Growth inhibition, Captan alone or LEAP encapsulated at different concentrations, Example 4", "type": "cell-based, Aspergillus nidulans", "conditions": "50 μL per plate", "experimental": "In this example, the effectiveness of Captan alone or encased in a LEAP colloidal particle on A. nidulans growth was compared. Different concentrations of Captan were tested for growth inhibition when applied directly to freshly seeded fungi growing on 1% milk plates or after encapsulation as a colloidal particle with a LEAP (h5F-L). Captan was dissolved in a formulated (1:1:2) solution containing propionic acid, soy oil, and a pesticide synergist, Piperonyl butoxide (PBO). The resulting active solution was diluted to the following concentrations: 1%, 0.1%, 0.05%, 0.01%, 0.005%, 0.001%. A volume of 50 μL of the 1:1:2 solution containing the fungicide was combined with 1 mmole of dry peptide and then allowed to stand for 20 minutes. Deionized water was then added to the colloidal mixture to raise the total volume to 1 mL, followed by sonicating the mixture for 5 minutes, and then incubating for 60-90 minutes. A volume of 50 μL for each test solution was added to the center of each plate (FIG. 6)."}, "[2]": {"tested_on": "leaves of Vicia faba (Fava beans)", "test": "Effects of formulations sprayed on leaves", "conditions": "Vicia faba (fava bean), in vivo, 24 h", "experimental": "In this study, we looked at the effects of the Captan fungicide formulation with and without the LEAP peptide when applied to the leaves of Vicia faba (Fava beans). Three formulations were prepared for this experiment: […]\nDeionized water was added to each formulation to a final volume 1 mL and allowed to stand at room temperature for 60-90 min. […]"}, "[3]": {"test": "Dynamic light scattering of LEAP alone in water (micelles)", "type": "physicochemical", "conditions": "1 mg peptide in water, no excipient", "experimental": "One mg of the LEAP (Ac-FLIVIKKKK-CONH2, SEQ ID NO:1, where X is F) was dissolved in 500 μL of DDI-RO water. The solution was sonicated for 10 min then allowed to rest at room temperature for approximately 60 min. This solution was further diluted to 10 mL with DDI-RO water prior to dynamic light scattering analysis. Light scattering data was recorded using an Anton-Parr Litesizer 500 instrument and processed using the proprietary ‘Kalliope’ analysis software. The DLS calculations indicated particles with a hydrodynamic diameter of 928.3 nm with peak numerical intensity at 120.09 nm and a polydispersity index of 229.1%."}, "[4]": {"test": "Average size and zeta potential by light scattering (ZetaPlus), soy oil colloids", "type": "physicochemical", "conditions": "peptide colloids in high purity soy oil", "experimental": "Peptide colloids were prepared with either Ac-FLIVI-KKKKK-CO-NH2 (SEQ ID NO:1, where X is F, “h5F-L”) or Ac-VLIVI-KKKKK-CO-NH2 (SEQ ID NO:1, where X is V, “h5V-L”), in high purity soy oil were tested for average size and zeta potential (surface charge) using light scattering on a ZetaPlus particle sizing instrument. A control was prepared using high purity soy oil mixed with water and sonicated."}, "[5]": {"test": "Resizing by extrusion through 100 nm polycarbonate filters", "type": "physicochemical", "conditions": "extruded through 100 nm polycarbonate filters", "source_text": "Given that particle sizes for both peptides were above the nanoscale cutoff of 100 nm, the samples were subjected to resizing by extruding them through 100 nm polycarbonate filters. The […]-L particles were resized to about 80 nm after extrusion (data not shown). The […]-L particles could be resized to about 90 nm."}, "[6]": {"test": "Encapsulation of soy oil containing Nile Red dye by peptide", "type": "physicochemical", "conditions": "22 μL soy oil with Nile Red, 480 μL water", "experimental": "(§1) Initial encapsulation studies were carried out using high purity soy oil containing a lipid soluble dye, Nile Red. Studies were carried out using FLIVI-KKKKK (SEQ ID NO:1, where X is F). Increasing concentrations of the peptide (see FIG. 2) were prepared in Trifluoroethanol and dried in vacuo. To each tube, 22 μL of soy oil containing Nile Red dye (1 mg/mL) was added and allowed to stand for 15 min. Distilled/deionized water (480 μL) was then added and mixed repeatedly using a vortex mixer over a period of at least 5 min. The solution became somewhat cloudy as the dye containing colloids formed at the higher peptide concentrations. 25% was encapsulated at 0.5 mM peptide concentration with 80% encapsulated by the 1 mM peptide concentration. The colloids formed using the FLIVI-KKKKK (SEQ ID NO:1, where X is F) sequence remain stable in a water solution for extended periods of time (at least 12 months)."}, "[7]": {"test": "Stability of colloids in water solution", "type": "physicochemical", "conditions": "soy oil colloids", "experimental": "as §1"}}}
{"compound": "1-[3-chloro-4-phenyl]-3-urea [Novarulon]", "values": [{"measurement": "killing of larvae", "setting": "M. sexta larvae", "result": "still active"}]}
{"compound": "O=C1[C@H]2CC=CC[C@H]2C(=O)N1SC(Cl)(Cl)Cl", "note": "[Captan, (3aR,7aS)-2-[(Trichloromethyl)sulfanyl]-3a,4,7,7a-tetrahydro-1H-isoindole-1,3(2H)-dione]", "values": [{"measurement": "antifungal activity", "setting": "Aspergillus nidulans", "result": "not very effective"}, {"measurement": "solubility in propionic acid", "setting": "[1]; C3 organic acid, propionic acid", "result": "good solubility"}, {"measurement": "solubility in water relative to acetone and xylene (fold less)", "setting": "[1]; water vs acetone, xylene", "result": 4000, "unit": "fold"}, {"measurement": "growth inhibition", "setting": "A. nidulans; 0.1% concentration", "result": "only slight inhibition"}, {"measurement": "growth inhibition", "setting": "A. nidulans; highest concentration (1%), propionic acid, soy oil, PBO (1:1:2)", "result": "strong growth inhibition"}]}
{"compound": "CCC(=O)O", "note": "[propionic acid]", "values": [{"measurement": "leaf damage", "setting": "[2]", "result": "black spots on the leaves after 24 hr"}]}
{"compound": "Ac-FLIVI-KKKKK-CO-NH2 (Ac-FLIVIKKKKK-NH2) [h5F-L, lipid encasing amphipathic peptide]", "values": [{"measurement": "antifungal activity", "setting": "Aspergillus nidulans", "result": "complete growth inhibition"}, {"measurement": "peak numerical intensity", "setting": "[3]", "result": 120.09, "unit": "nm"}, {"measurement": "polydispersity index", "setting": "[3]", "result": 229.1, "unit": "%"}, {"measurement": "hydrodynamic diameter", "setting": "[3]; diluted to 10 mL", "result": 928.3, "unit": "nm"}, {"measurement": "GSD", "setting": "[4]", "result": "GSD 1.618"}, {"measurement": "Median Diam.", "setting": "[4]", "result": "Median Diam. 363.8 nm"}, {"measurement": "zeta potential", "setting": "[4]", "result": "46±2.5", "unit": "mV"}, {"measurement": "particle size after extrusion", "setting": "[5]", "result": "about 80 nm"}]}
{"compound": "Ac-VLIVI-KKKKK-CO-NH2 (Ac-VLIVIKKKKK-NH2) [h5V-L, lipid encasing amphipathic peptide]", "values": [{"measurement": "antifungal activity", "setting": "Aspergillus nidulans", "result": "a small amount of antifungal activity"}, {"measurement": "GSD", "setting": "[4]", "result": "GSD 1.528"}, {"measurement": "Median Diam.", "setting": "[4]", "result": "Median Diam. 216.5 nm"}, {"measurement": "zeta potential", "setting": "[4]", "result": "43±1.6", "unit": "mV"}, {"measurement": "particle size after extrusion", "setting": "[5]", "result": "about 90 nm"}]}
{"compound": "FLIVI-KKKKK (XLIVIKKKKK; (1)..(1) X is F or V)", "values": [{"measurement": "encapsulated", "setting": "[6]; 0.5 mM peptide concentration", "result": 25, "unit": "%"}, {"measurement": "encapsulated", "setting": "[6]; 1 mM peptide concentration", "result": 80, "unit": "%"}, {"measurement": "colloids remain stable in a water solution", "setting": "[7]", "result": "at least 12 months"}]}
